Results from PMC5907831 (Journal of Molecular Cell Biology, 2017).
Positions count from the first letter of the chain named. In names and notes the source's numbering stands. Read-outs that look alike come from different tables or passages of the source.

T1: SRP72 V136A/R137A double mutant (human, UniProt O76094 1-163, V136A | R137A)
T1 sequence (looked up): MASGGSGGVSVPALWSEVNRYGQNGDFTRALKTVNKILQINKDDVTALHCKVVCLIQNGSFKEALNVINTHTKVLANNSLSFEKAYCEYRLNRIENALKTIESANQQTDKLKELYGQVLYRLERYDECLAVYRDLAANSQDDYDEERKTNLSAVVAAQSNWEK

B1: SRP72^1–163 (human SRP72 N-terminal TPR domain, SRP68-binding domain) (domain or fragment, UniProt O76094 1-163, looked up)
chain: T1 sequence (looked up) with A136V, A137R
B2: apo-SRP72: human SRP72 N-terminal TPR domain, residues 1–163, apo form (protein)
chain: T1 sequence (looked up) with A136V, A137R
modifications: left off: His6, N-terminal, cleaved
B3: V136A/R137A: monomeric double mutant of SRP72 in helix α8 (protein)
chain: T1 sequence (looked up)
modifications: left off: His6, N-terminal, state not stated
B4: Y132A/R133A: double mutant of SRP72 in helix α8 (protein)
chain: T1 sequence (looked up) with Y132A, R133A, A136V, A137R
modifications: left off: His6, N-terminal, state not stated
B5: SRP68/72 complex: heterodimer of SRP68 and SRP72 (protein, UniProt Q9UHB9 1-627; O76094 2-671, looked up)
Signal recognition particle … 1: MAAEKQVPGGGGGGGSGGGGGSGGGGSGGGRGAGGEENKENERPSAGSKANKEFGDSLSLEILQIIKESQQQHGLRHGDFQRYRGYCSRRQRRLRKTLNFKMGNRHKFTGKKVTEELLTDNRYLLLVLMDAERAWSYAMQLKQEANTEPRKRFHLLSRLRKAVKHAEELERLCESNRVDAKTKLEAQAYTAYLSGMLRFEHQEWKAAIEAFNKCKTIYEKLASAFTEEQAVLYNQRVEEISPNIRYCAYNIGDQSAINELMQMRLRSGGTEGLLAEKLEALITQTRAKQAATMSEVEWRGRTVPVKIDKVRIFLLGLADNEAAIVQAESEETKERLFESMLSECRDAIQVVREELKPDQKQRDYILEGEPGKVSNLQYLHSYLTYIKLSTAIKRNENMAKGLQRALLQQQPEDDSKRSPRPQDLIRLYDIILQNLVELLQLPGLEEDKAFQKEIGLKTLVFKAYRCFFIAQSYVLVKKWSEALVLYDRVLKYANEVNSDAGAFKNSLKDLPDVQELITQVRSEKCSLQAAAILDANDAHQTETSSSQVKDNKPLVERFETFCLDPSLVTKQANLVHFPPGFQPIPCKPLFFDLALNHVAFPPLEDKLEQKTKSGLTGYIKGIFGFRS
Signal recognition particle … 2: ASGGSGGVSVPALWSEVNRYGQNGDFTRALKTVNKILQINKDDVTALHCKVVCLIQNGSFKEALNVINTHTKVLANNSLSFEKAYCEYRLNRIENALKTIESANQQTDKLKELYGQVLYRLERYDECLAVYRDLVRNSQDDYDEERKTNLSAVVAAQSNWEKVVPENLGLQEGTHELCYNTACALIGQGQLNQAMKILQKAEDLCRRSLSEDTDGTEEDPQAELAIIHGQMAYILQLQGRTEEALQLYNQIIKLKPTDVGLLAVIANNIITINKDQNVFDSKKKVKLTNAEGVEFKLSKKQLQAIEFNKALLAMYTNQAEQCRKISASLQSQSPEHLLPVLIQAAQLCREKQHTKAIELLQEFSDQHPENAAEIKLTMAQLKISQGNISKACLILRSIEELKHKPGMVSALVTMYSHEEDIDSAIEVFTQAIQWYQNHQPKSPAHLSLIREAANFKLKYGRKKEAISDLQQLWKQNPKDIHTLAQLISAYSLVDPEKAKALSKHLPSSDSMSLKVDVEALENSAGATYIRKKGGKVTGDSQPKEQGQGDLKKKKKKKKGKLPKNYDPKVTPDPERWLPMRERSYYRGRKKGKKKDQIGKGTQGATAGASSELDASKTVSSPPTSPRPGSAATVSASTSNIIPPRHQKPAGAPATKKKQQQKKKKGGKGGW
B6: SRP68 F590L: cancer-associated SRP68 mutant (protein, UniProt Q9UHB9 1-627, looked up, variant F590L)
Signal recognition particle …: B5 Signal recognition particle … 1 with F590L
B7: SRP72 V53I: cancer-associated SRP72 mutant (protein, UniProt O76094 2-671, looked up, variant V53I)
Signal recognition particle …: B5 Signal recognition particle … 2 with V52I
B8: SRP72 Y86C: cancer-associated SRP72 mutant (protein, UniProt O76094 2-671, looked up, variant Y86C)
Signal recognition particle …: B5 Signal recognition particle … 2 with Y85C
B9: residues 530–620: C-terminal SRP68 fragment from previous study (protein, UniProt Q9UHB9 530-620, looked up, fragment)
chain: AAILDANDAHQTETSSSQVKDNKPLVERFETFCLDPSLVTKQANLVHFPPGFQPIPCKPLFFDLALNHVAFPPLEDKLEQKTKSGLTGYIK

How the values were obtained:
[1] = Stability/solubility of SRP68 fragments and of SRP72 without cap; assay type: physicochemical; conditions: preliminary experiments
[2] = target: the molecule itself; experiment: SEC
[3] = target: the molecule itself; experiment: AUC
[4] = Size-exclusion chromatography; assay type: physicochemical; conditions: Superdex 75 10/300 GL; 20 mM Tris-HCl pH 8.0, 500 mM NaCl
[5] = target: T1, SRP72 V136A/R137A double mutant; experiment: pull-down
[6] = target: B1; experiment: MST
[7] = ref Iakhiaeva et al., 2009, cited from earlier work
[8] = tested on: SRP72; experiment: Binding ability of Flag-tagged SRP68 mutants from HCT116 cell lysate; assay type: cell-based, human; conditions: HCT116 cells; Flag-tagged SRP68 mutant from cell lysate
[9] = tested on: SRP68; experiment: Binding ability of SRP72 mutants with Flag-tagged SRP68 from HCT116 cell lysate; assay type: cell-based, human; conditions: HCT116 cells

Which “degradation / solubility of fragment” value [1] does the source give for “570–605: C-terminal SRP68 fragment from previous study (KQANLVHFPPGFQPIPCKPLFFDLALNHVAFPPLED; UniProt Q9UHB9 570-605, looked up, fragment) [reference compound]” here?
The value was “either prone to degradation or not soluble”.

What does the source list for B1?
stoichiometry N [2]: 2; stoichiometry N [3]: 4

With B2 as the molecule, how does the “oligomeric state in solution (SEC)” value [4] read?
Its value is “mainly as a dimer in solution”.

With B3 as the molecule, how does the “oligomeric state in solution (SEC)” value [4] read?
Its value is “eluted as monomers”.

For B4, which “oligomeric state in solution (SEC)” value [4] is on record?
The value was “eluted as monomers”.

Does PLFFDLALNHVAFPPLEDKLEQK (peptide, UniProt Q9UHB9 588-610, looked up) [GST-tagged SRP68 residues 588−610 (23-residue peptide of SRP68)] bind [5]?
Result: binds

And the Kd [6]?
The Kd was 730 ± 200 nM.

With B5 as the molecule, how does the complex stability ([7]; 1 M NaCl) read?
The complex stability was “remains stable”.

What about the complex stability ([7]; 2 M urea) of the same molecule?
The complex stability was “stability in 2 M urea”.

With B6 as the molecule, how does the “binding ability compared with wild-type (HCT116)” value [8] read?
Its value is “severely compromised or abolished the binding ability”.

Which “binding ability compared with wild-type (HCT116)” value [9] does the source give for B7 here?
Its value is “severely compromised or abolished the binding ability”.

With B8 as the molecule, how does the “binding ability compared with wild-type (HCT116)” value [9] read?
Its value is “severely compromised or abolished the binding ability”.

Which “degradation / solubility of fragment” value [1] does the source give for B9 here?
The value was “either prone to degradation or not soluble”.
